T1: GST-p38 (wild type p38α fused to GST, from pGEX2T-p38α)
T1 chain: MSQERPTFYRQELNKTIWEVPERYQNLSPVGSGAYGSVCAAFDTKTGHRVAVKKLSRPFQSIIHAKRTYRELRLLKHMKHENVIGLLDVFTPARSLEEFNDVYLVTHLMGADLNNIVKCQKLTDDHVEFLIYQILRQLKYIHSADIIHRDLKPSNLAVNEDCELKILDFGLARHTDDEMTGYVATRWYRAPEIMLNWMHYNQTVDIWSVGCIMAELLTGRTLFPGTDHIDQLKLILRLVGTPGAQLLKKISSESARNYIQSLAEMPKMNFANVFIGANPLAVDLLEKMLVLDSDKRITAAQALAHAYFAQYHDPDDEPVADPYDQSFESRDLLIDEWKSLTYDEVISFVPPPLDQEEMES

T2: GST-280-360p38 (last 80 amino acids of p38α fused to GST, from pDEST15)
T2 chain: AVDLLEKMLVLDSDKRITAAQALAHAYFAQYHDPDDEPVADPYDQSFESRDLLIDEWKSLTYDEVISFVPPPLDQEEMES

B1: Recombinant GRK2 purified by the Baculovirus system (from infected Sf9 cells) (protein)
chain: MADLEAVLADVSYLMAMEKSKATPAARASKKILLPEPSIRSVMQKYLEDRGEVTFEKIFSQKLGYLLFRDFCLKHLEEAKPLVEFYEEIKKYEKLETEEERLVCSREIFDTYIMKELLACSHPFSKSAIEHVQGHLVKKQVPPDLFQPYIEEICQNLRGDVFQKFIESDKFTRFCQWKNVELNIHLTMNDFSVHRIIGRGGFGEVYGCRKADTGKMYAMKCLDKKRIKMKQGETLALNERIMLSLVSTGDCPFIVCMSYAFHTPDKLSFILDLMNGGDLHYHLSQHGVFSEADMRFYAAEIILGLEHMHNRFVVYRDLKPANILLDEHGHVRISDLGLACDFSKKKPHASVGTHGYMAPEVLQKGVAYDSSADWFSLGCMLFKLLRGHSPFRQHKTKDKHEIDRMTLTMAVELPDSFSPELRSLLEGLLQRDVNRRLGCLGRGAQEVKESPFFRSLDWQMVFLQKYPPPLIPPRGEVNAADAFDIGSFDEEDTKGIKLLDSDQELYRNFPLTISERWQQEVAETVFDTINAETDRLEARKKTKNKQLGHEEDYALGKDCIMHGYMSKMGNPFLTQWQRRYFYLFPNRLEWRGEGEAPQSLLTMEEIQSVEETQIKERKCLLLKIRGGKQFVLQCDSDPELVQWKKELRDAYREAQQLVQRVPKMKNKPRSPVVELSKVPLIQRGSANGL

Columns and labels:
p38 = biological target: T3, p38 (Mus musculus, UniProt P47811); experiment: effect of heparin on catalytic activity of p38; type: biochemical
T3 construct: with whole p38α in the same conditions as described in section A; made in house; host or cells: E. coli
T3 sequence (P47811 whole entry): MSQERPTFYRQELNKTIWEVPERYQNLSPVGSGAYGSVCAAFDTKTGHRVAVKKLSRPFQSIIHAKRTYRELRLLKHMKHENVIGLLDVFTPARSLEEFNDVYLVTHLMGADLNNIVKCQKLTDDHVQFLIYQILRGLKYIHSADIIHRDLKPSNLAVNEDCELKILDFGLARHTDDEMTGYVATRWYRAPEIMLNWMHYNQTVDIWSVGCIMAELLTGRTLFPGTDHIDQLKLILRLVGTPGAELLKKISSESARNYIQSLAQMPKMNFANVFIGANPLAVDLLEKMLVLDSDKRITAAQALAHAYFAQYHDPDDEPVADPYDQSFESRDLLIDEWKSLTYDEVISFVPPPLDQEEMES
Excerpt: Subsequently, the inventors decided to study the possible interactions between GRK2 and p38. The first experimental approach was the phosphorylation assays of both proteins. […] These experiments were completed with negative controls of GST phosphorylation by GRK2 and by inspecting the binding area between the GST portion and the ORF of p38.

[1] = biological target: T1, GST-p38 (wild type p38α fused to GST, …)
[2] = biological target: T2, GST-280-360p38 (last 80 amino acids of …)

Row | Molecule | effect on catalytic activity of p38 (p38) | phosphorylation by GRK2 (32P incorporation) (GST-Mxi2, Q16539) | phosphorylation by GRK2 (32P incorporation) (GST-p38T123D) | phosphorylation by GRK2 (32P incorporation) (GST-p38T123A) | Km of p38 phosphorylation by GRK2 [1] | Michaelis-Menten constant (Km) of GST-p38 phosphorylation by GRK2 [1] | phosphorylation by GRK2 (32P incorporation) (GST-Mxi2Δ17, Q16539) | phosphorylation by GRK2 (32P incorporation) [2]
1 | heparin | does not affect the catalytic activity of p38 | – | – | – | – | – | – | –
2 | B1 | – | With comparable amounts of p38α, Mxi2 and MxiΔ17, the last two were not phosphorylated by GRK2 | none of the two mutant is a GRK2 substrate | none of the two mutant is a GRK2 substrate | the value of the Km=80 nM | Km=79.56 nM | With comparable amounts of p38α, Mxi2 and MxiΔ17, the last two were not phosphorylated by GRK2 | after purifying the fusion protein and testing it against GRK2, no trace whatsoever of phosphorylation was obtained
